# Laboratory results published in IntAct's records for PubMed 16339905.
# B1: X-linked retinitis pigmentosa GTPase regulator-interacting protein 1 (Homo sapiens), Q96KN7-1 (parent)
# chain: MSHLVDPTSGDLPVRDIDAIPLVLPASKGKNMKTQPPLSRMNREELEDSFFRLREDHMLVKELSWKQQDEIKRLRTTLLRLTAAGRDLRVAEEAAPLSETARRGQKAGWRQRLSMHQRPQMHRLQGHFHCVGPASPRRAQPRVQVGHRQLHTAGAPVPEKPKRGPRDRLSYTAPPSFKEHATNENRGEVASKPSELVSGSNSIISFSSVISMAKPIGLCMPNSAHIMASNTMQVEEPPKSPEKMWPKDENFEQRSSLECAQKAAELRASIKEKVELIRLKKLLHERNASLVMTKAQLTEVQEAYETLLQKNQGILSAAHEALLKQVNELRAELKEESKKAVSLKSQLEDVSILQMTLKEFQERVEDLEKERKLLNDNYDKLLESMLDSSDSSSQPHWSNELIAEQLQQQVSQLQDQLDAELEDKRKVLLELSREKAQNEDLKLEVTNILQKHKQEVELLQNAATISQPPDRQSEPATHPAVLQENTQIEPSEPKNQEEKKLSQVLNELQVSHAETTLELEKTRDMLILQRKINVCYQEELEAMMTKADNDNRDHKEKLERLTRLLDLKNNRIKQLEGILRSHDLPTSEQLKDVAYGTRPLSLCLETLPAHGDEDKVDISLLHQGENLFELHIHQAFLTSAALAQAGDTQPTTFCTYSFYDFETHCTPLSVGPQPLYDFTSQYVMETDSLFLHYLQEASARLDIHQAMASEHSTLAAGWICFDRVLETVEKVHGLATLIGAGGEEFGVLEYWMRLRFPIKPSLQACNKRKKAQVYLSTDVLGGRKAQEEEFRSESWEPQNELWIEITKCCGLRSRWLGTQPSPYAVYRFFTFSDHDTAIIPASNNPYFRDQARFPVLVTSDLDHYLRREALSIHVFDDEDLEPGSYLGRARVPLLPLAKNESIKGDFNLTDPAEKPNGSIQVQLDWKFPYIPPESFLKPEAQTKGKDTKDSSKISSEEEKASFPSQDQMASPEVPIEAGQYRSKRKPPHGGERKEKEHQVVSYSRRKHGKRIGVQGKNRMEYLSLNILNGNTPEQVNYTEWKFSETNSFIGDGFKNQHEEEEMTLSHSALKQKEPLHPVNDKESSEQGSEVSEAQTTDSDDVIVPPMSQKYPKADSEKMCIEIVSLAFYPEAEVMSDENIKQVYVEYKFYDLPLSETETPVSLRKPRAGEEIHFHFSKVIDLDPQEQQGRRRFLFDMLNGQDPDQGHLKFTVVSDPLDEEKKECEEVGYAYLQLWQILESGRDILEQELDIVSPEDLATPIGRLKVSLQAAAVLHAIYKEMTEDLFS
# partner: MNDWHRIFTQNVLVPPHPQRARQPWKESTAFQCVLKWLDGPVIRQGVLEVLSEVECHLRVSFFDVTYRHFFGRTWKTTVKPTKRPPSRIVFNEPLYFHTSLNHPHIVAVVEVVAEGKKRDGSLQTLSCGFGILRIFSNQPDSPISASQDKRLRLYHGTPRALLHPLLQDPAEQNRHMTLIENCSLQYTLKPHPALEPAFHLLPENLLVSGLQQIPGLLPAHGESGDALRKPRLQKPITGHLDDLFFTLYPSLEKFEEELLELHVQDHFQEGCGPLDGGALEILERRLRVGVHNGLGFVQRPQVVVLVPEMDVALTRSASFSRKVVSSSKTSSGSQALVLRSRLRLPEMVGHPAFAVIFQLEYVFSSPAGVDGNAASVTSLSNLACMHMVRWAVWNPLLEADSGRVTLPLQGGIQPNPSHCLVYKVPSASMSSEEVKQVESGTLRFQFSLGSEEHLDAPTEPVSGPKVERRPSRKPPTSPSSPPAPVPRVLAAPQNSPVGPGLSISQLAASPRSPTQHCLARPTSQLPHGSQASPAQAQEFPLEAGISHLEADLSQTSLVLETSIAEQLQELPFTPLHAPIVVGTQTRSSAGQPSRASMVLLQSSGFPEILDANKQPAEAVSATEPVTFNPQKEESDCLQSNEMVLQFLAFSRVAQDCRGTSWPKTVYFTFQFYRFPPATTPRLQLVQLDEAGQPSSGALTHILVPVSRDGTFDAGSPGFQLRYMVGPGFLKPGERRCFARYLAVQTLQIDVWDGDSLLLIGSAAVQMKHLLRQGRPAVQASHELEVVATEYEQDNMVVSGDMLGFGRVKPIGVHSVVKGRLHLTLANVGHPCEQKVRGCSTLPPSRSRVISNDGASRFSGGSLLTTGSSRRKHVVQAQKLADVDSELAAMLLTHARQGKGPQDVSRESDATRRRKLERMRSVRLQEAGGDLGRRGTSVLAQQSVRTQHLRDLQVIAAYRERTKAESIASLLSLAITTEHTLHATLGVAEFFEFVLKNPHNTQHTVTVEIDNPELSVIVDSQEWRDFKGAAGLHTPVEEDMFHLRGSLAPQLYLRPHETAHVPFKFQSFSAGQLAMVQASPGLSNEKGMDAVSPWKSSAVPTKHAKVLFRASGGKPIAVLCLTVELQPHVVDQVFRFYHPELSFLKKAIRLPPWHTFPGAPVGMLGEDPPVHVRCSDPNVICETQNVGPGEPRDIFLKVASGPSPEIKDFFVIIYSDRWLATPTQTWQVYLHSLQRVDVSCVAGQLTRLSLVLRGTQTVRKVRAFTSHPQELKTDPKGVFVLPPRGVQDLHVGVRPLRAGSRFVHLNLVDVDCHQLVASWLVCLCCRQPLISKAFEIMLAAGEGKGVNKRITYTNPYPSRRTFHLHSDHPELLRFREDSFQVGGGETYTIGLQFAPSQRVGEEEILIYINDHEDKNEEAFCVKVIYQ
# B2: Nephrocystin-4 (Homo sapiens), O75161-1 (parent)
# chain: B1 partner
# partner: B1 chain
# Variants of: B1
# Conditions: with NPHP4, O75161-1
row,Variant,effect of a mutation on the interaction
1,G746E,disrupting interaction
2,R852Q,with no effect
3,D876G,disrupting interaction

# Variants of: B1
# Conditions: with NPHP4, O75161-1
# Remark: another data set of the same source
row,Variant,effect of a mutation on the interaction
1,D876G,decreasing interaction

# Variants of: B2
# Conditions: with RPGRIP1, Q96KN7-1
row,Variant,effect of a mutation on the interaction
1,G754R,disrupting interaction
